In the assay the target is VP16-PYLcs (VP16 transactivation domain fused to PYL1 aa 33-209) (herpes simplex virus; Arabidopsis thaliana) (UniProt Q8VZS8). The assay can be described thus: cell-based or functional assay.
Chain of VP16-PYLcs (VP16 transactivation domain fused to PYL1 aa 33-209) (herpes simplex virus; Arabidopsis thaliana) (Q8VZS8 33-209 limits assumed): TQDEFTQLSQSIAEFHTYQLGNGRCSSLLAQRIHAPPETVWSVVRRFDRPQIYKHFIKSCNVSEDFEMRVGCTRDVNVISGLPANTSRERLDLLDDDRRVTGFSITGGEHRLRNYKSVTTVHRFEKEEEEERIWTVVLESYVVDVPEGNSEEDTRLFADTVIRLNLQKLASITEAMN

As for “Gal4 DBD-ABIcs, wild type (Gal4 DNA binding domain fused to ABI1 aa 126-423) (from UniProt P04386 1-147)”, the luciferase production (UAS-luciferase reporter, murine ES, NIH 3T3 and HEK 293T cells) was found to be 1000 fold.

The values are drawn from US20130158098A1, “Alkenyl Substituted Cycloaliphatic Compounds as Chemical Inducers of Proximity” (priority 2010, published 2013).
